{
  "source": "paper PMC4355076",
  "about": "(Molecular cell, 2015)",
  "key": {"AUC": {"molecular_target": "the molecule itself", "test": "AUC"}, "[1]": {"molecular_target": "T1, human UCH37 (isoform 1), full-length (human, UniProt Q9Y5K5 1-329)", "T1 sequence (looked up)": "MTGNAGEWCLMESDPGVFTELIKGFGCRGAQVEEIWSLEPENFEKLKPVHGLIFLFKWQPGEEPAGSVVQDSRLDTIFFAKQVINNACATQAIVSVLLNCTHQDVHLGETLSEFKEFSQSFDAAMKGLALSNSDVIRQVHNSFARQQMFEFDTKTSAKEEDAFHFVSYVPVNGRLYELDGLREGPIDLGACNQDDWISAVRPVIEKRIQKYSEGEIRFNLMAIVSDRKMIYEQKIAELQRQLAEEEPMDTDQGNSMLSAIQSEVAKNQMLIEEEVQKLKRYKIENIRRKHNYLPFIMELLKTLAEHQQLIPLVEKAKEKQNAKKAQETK", "test": "cell-based or functional assay"}, "UCH37(M148A,F149A)": {"molecular_target": "T2, UCH37(M148A,F149A) (human, UniProt Q9Y5K5 1-329, M148A | F149A)", "T2 sequence (looked up)": "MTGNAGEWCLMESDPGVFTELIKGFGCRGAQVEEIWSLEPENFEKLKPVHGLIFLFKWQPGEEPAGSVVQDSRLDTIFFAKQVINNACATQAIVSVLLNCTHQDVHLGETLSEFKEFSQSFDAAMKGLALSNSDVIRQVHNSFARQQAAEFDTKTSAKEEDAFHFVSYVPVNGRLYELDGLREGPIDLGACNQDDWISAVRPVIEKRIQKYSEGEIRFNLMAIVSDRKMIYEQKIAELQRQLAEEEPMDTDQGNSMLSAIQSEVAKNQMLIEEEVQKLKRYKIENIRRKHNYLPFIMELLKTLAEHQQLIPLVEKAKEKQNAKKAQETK", "test": "cell-based or functional assay"}, "human UCH37 isoform 2": {"molecular_target": "T3, human UCH37 isoform 2 (human, UniProt Q9Y5K5 1-329, deleting the codon for E246)", "T3 sequence (looked up)": "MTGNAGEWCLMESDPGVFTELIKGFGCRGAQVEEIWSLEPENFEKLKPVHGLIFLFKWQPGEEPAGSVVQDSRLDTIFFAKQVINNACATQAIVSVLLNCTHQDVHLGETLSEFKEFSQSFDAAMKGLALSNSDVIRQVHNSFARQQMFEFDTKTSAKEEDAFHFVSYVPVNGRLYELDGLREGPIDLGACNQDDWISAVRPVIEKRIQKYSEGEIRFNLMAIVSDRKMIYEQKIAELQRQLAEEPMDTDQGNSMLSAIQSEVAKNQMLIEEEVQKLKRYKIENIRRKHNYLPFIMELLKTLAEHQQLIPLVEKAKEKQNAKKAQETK", "test": "cell-based or functional assay"}, "human ubiquitin": {"molecular_target": "human ubiquitin (human, UniProt P0CG48 1-76)", "test": "cell-based or functional assay"}, "[2]": {"molecular_target": "T4, human UCH37 isoform 1, co-expressed with NFRKB (human, UniProt Q9Y5K5 1-329)", "T4 sequence (looked up)": "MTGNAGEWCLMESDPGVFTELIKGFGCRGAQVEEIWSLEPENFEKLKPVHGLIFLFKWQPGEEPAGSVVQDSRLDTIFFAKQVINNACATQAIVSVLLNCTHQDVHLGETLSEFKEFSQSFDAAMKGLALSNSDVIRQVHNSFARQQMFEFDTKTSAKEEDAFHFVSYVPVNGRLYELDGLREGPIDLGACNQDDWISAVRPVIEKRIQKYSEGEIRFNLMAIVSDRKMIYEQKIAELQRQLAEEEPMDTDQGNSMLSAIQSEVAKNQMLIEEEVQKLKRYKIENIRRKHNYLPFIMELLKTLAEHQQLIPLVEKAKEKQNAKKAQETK", "test": "cell-based or functional assay"}},
  "data": [
    {"binder": "UCH37(M269E,N291D) (enzyme, human, UniProt Q9Y5K5 1-329, looked up) MTGNAGEWCLMESDPGVFTELIKGFGCRGAQVEEIWSLEPENFEKLKPVHGLIFLFKWQPGEEPAGSVVQDSRLDTIFFAKQVINNACATQAIVSVLLNCTHQDVHLGETLSEFKEFSQSFDAAMKGLALSNSDVIRQVHNSFARQQMFEFDTKTSAKEEDAFHFVSYVPVNGRLYELDGLREGPIDLGACNQDDWISAVRPVIEKRIQKYSEGEIRFNLMAIVSDRKMIYEQKIAELQRQLAEEEPMDTDQGNSMLSAIQSEVAKNQELIEEEVQKLKRYKIENIRRKHDYLPFIMELLKTLAEHQQLIPLVEKAKEKQNAKKAQETK", "values": [
      {"measurement": "Kd", "setting": "AUC", "value": 49, "unit": "µM"}
    ]},
    {"binder": "human RPN13^285-407 (domain or fragment) GSWTQVDLASVLTPEIMAPILANADVQERLLPYLPSGESLPQTADEIQNTLTSPQFQQALGMFSAALASGQLGPLMCQFGLPAEAVEAANKGDVEAFAKAMQNNAKPEQKEGDTKDKKDEEEDMSLD", "values": [
      {"measurement": "kcat of ubiquitin-AMC hydrolysis by the UCH37/RPN13^285-407 complex", "setting": "[1]", "value": 5, "unit": "s⁻¹"},
      {"measurement": "kcat/Km of ubiquitin-AMC hydrolysis by the UCH37/RPN13^285-407 complex", "setting": "[1]", "value": 1.6, "unit": "s^−1μM^−1"},
      {"measurement": "kcat of ubiquitin-AMC hydrolysis by the UCH37(M148A,F149A)/RPN13^285-407 complex", "setting": "UCH37(M148A,F149A)", "value": 4.7, "unit": "s⁻¹"},
      {"measurement": "kcat of ubiquitin-AMC hydrolysis by the UCH37(isoform2)/RPN13^285-407 complex", "setting": "human UCH37 isoform 2", "value": 4.7, "unit": "s⁻¹"},
      {"measurement": "kcat/Km of ubiquitin-AMC hydrolysis by the UCH37(isoform2)/RPN13^285-407 complex", "setting": "human UCH37 isoform 2", "value": 1.4, "unit": "s^−1μM^−1"}
    ]},
    {"binder": "RPN13(Q337A,Q338A)^285-407 (domain or fragment, human) GSWTQVDLASVLTPEIMAPILANADVQERLLPYLPSGESLPQTADEIQNTLTSPQFAAALGMFSAALASGQLGPLMCQFGLPAEAVEAANKGDVEAFAKAMQNNAKPEQKEGDTKDKKDEEEDMSLD", "values": [
      {"measurement": "kcat of ubiquitin-AMC hydrolysis by the UCH37/RPN13(Q337A,Q338A)^285-407 complex", "setting": "human ubiquitin", "value": 4.7, "unit": "s⁻¹"}
    ]},
    {"binder": "NFRKB^1-117 (domain or fragment, human, UniProt Q6P4R8 1-117, looked up) MDSLDHMLTDPLELGPCGDGHGTRIMEDCLLGGTRVSLPEDLLEDPEIFFDVVSLSTWQEVLSDSQREHLQQFLPQFPEDSAEQQNELILALFSGENFRFGNPLHIAQKLFRDGHFN", "values": [
      {"measurement": "kcat of ubiquitin-AMC hydrolysis by the UCH37/NFRKB^1-117 complex", "setting": "[2]", "value": 0.15, "unit": "s⁻¹"},
      {"measurement": "kcat/Km of ubiquitin-AMC hydrolysis by the UCH37/NFRKB^1-117 complex", "setting": "[2]", "value": 0.005, "unit": "s^−1μM^−1"}
    ]},
    {"binder": "NFRKB^1-156 (domain or fragment, human, UniProt Q6P4R8 1-156, looked up) MDSLDHMLTDPLELGPCGDGHGTRIMEDCLLGGTRVSLPEDLLEDPEIFFDVVSLSTWQEVLSDSQREHLQQFLPQFPEDSAEQQNELILALFSGENFRFGNPLHIAQKLFRDGHFNPEVVKYRQLCFKSQYKRYLNSQQQYFHRLLKQILASRSD", "values": [
      {"measurement": "kcat of ubiquitin-AMC hydrolysis by the UCH37/NFRKB^1-156 complex", "setting": "[2]", "value": 0.1, "unit": "s⁻¹"},
      {"measurement": "kcat/Km of ubiquitin-AMC hydrolysis by the UCH37/NFRKB^1-156 complex", "setting": "[2]", "value": 0.006, "unit": "s^−1μM^−1"}
    ]},
    {"binder": "NFRKB^1-156(^97GSGS^100) (domain or fragment, human, UniProt Q6P4R8 1-156, looked up) MDSLDHMLTDPLELGPCGDGHGTRIMEDCLLGGTRVSLPEDLLEDPEIFFDVVSLSTWQEVLSDSQREHLQQFLPQFPEDSAEQQNELILALFSGEGSGSGNPLHIAQKLFRDGHFNPEVVKYRQLCFKSQYKRYLNSQQQYFHRLLKQILASRSD", "values": [
      {"measurement": "kcat of ubiquitin-AMC hydrolysis by the UCH37/NFRKB^1-156(^97GSGS^100) complex", "setting": "[2]", "value": 5.94, "unit": "s⁻¹"}
    ]},
    {"binder": "NFRKB^39-156 (domain or fragment, human, UniProt Q6P4R8 39-156, looked up) PEDLLEDPEIFFDVVSLSTWQEVLSDSQREHLQQFLPQFPEDSAEQQNELILALFSGENFRFGNPLHIAQKLFRDGHFNPEVVKYRQLCFKSQYKRYLNSQQQYFHRLLKQILASRSD", "values": [
      {"measurement": "kcat of ubiquitin-AMC hydrolysis by the UCH37/NFRKB^39-156 complex", "setting": "[2]", "value": 0.25, "unit": "s⁻¹"},
      {"measurement": "kcat/Km of ubiquitin-AMC hydrolysis by the UCH37/NFRKB^39-156 complex", "setting": "[2]", "value": 0.009, "unit": "s^−1μM^−1"}
    ]}
  ]
}
